The source of these data is publication PMC10054023, “Fabrication of Rapid Electrical Pulse-Based Biosensor Consisting of Truncated DNA Aptamer for Zika Virus Envelope Protein Detection in Clinical Samples”.

Series [1] deals with T1, Zika virus envelope protein (Zika virus, UniProt A0A024B7W1 291-694). As to the kind of experiment: bead-based fluorescence binding assay; protein on magnetic beads; Bead assay: room temperature, 1 h, envelope protein 0.15 mg/mL on magnetic beads, aptamer 3 nM-1 uM, DIW wash; binding buffer not stated (folding predicted at 140 mM Na+, 5 mM Mg2+). Sensor: ACEF 10 min, read in 1 M KCl pH 7. Conditions: protein: commercial; label: 5' 6-FAM; stem-loops (mfold prediction).

A further series deals with myoglobin (horse, UniProt P68082 2-154). As to the kind of experiment: pulse voltammetry biosensor; no significant reactivity; Bead assay: room temperature, 1 h, envelope protein 0.15 mg/mL on magnetic beads, aptamer 3 nM-1 uM, DIW wash; binding buffer not stated (folding predicted at 140 mM Na+, 5 mM Mg2+). Sensor: ACEF 10 min, read in 1 M KCl pH 7. Conditions: protein: commercial; stem-loops (mfold prediction).
Chain of myoglobin (P68082 2-154): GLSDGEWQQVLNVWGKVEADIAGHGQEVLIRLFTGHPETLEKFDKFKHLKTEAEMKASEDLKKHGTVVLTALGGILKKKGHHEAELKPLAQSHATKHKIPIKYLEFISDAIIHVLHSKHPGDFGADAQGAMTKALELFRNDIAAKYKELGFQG

In another series the target is hemoglobin (horse, UniProt P01958;P02062 2-142;1-146). Described as above. As to conditions: protein: commercial; chain copies: 2;2; stem-loops (mfold prediction).
Chain of hemoglobin (P01958 2-142, chain 1 of 2): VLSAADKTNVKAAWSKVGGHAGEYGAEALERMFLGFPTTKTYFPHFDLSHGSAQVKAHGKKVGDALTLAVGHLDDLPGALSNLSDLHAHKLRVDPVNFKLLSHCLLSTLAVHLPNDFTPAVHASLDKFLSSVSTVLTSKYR
Chain of hemoglobin (P02062 whole entry, chain 2 of 2): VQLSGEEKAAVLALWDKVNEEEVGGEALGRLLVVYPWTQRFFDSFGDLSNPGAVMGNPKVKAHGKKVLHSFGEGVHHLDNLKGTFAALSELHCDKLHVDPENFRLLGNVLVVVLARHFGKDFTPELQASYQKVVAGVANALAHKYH
Another series concerns the target fibrinogen (UniProt P02671;P02675;P02679 20-629;31-491;27-453). The description is as above. Conditions: protein: commercial; chain copies: 2;2;2; stem-loops (mfold prediction).
The target in series [2] is T1, Zika virus envelope protein. Put plainly: pulse voltammetry biosensor; ACEF; read in 1 M KCl pH 7; LOD 90.1 pM; Bead assay: room temperature, 1 h, envelope protein 0.15 mg/mL on magnetic beads, aptamer 3 nM-1 uM, DIW wash; binding buffer not stated (folding predicted at 140 mM Na+, 5 mM Mg2+). Sensor: ACEF 10 min, read in 1 M KCl pH 7. Conditions: protein: commercial; stem-loops (mfold prediction).

Series [3] shares this target. As to the kind of experiment: EMSA (8% TBE-PAGE); Kd slightly lower than truncated aptamer, value not given; […], aptamer 3 nM-1 uM, […]; binding buffer not stated ([…], read in 1 M KCl pH 7. Conditions: protein: commercial; stem-loops (mfold prediction).

Chain of fibrinogen (P02671 20-629, chain 1 of 3): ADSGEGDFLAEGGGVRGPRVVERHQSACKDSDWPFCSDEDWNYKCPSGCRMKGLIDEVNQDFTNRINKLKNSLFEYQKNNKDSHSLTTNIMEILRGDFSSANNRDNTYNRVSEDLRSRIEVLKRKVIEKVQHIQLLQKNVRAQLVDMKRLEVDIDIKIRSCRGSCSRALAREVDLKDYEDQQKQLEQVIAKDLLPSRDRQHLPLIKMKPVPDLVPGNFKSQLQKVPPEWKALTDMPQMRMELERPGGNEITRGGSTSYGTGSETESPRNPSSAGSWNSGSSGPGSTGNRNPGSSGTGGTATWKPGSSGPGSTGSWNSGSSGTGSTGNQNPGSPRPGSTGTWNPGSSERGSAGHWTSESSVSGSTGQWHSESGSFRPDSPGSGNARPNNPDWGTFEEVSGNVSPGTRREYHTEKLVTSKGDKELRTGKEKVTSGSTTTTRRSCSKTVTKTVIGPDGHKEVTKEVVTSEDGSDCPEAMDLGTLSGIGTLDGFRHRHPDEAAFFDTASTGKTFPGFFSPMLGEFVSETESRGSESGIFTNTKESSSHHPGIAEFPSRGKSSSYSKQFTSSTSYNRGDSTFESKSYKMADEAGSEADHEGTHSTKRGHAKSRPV
Chain of fibrinogen (P02675 31-491, chain 2 of 3): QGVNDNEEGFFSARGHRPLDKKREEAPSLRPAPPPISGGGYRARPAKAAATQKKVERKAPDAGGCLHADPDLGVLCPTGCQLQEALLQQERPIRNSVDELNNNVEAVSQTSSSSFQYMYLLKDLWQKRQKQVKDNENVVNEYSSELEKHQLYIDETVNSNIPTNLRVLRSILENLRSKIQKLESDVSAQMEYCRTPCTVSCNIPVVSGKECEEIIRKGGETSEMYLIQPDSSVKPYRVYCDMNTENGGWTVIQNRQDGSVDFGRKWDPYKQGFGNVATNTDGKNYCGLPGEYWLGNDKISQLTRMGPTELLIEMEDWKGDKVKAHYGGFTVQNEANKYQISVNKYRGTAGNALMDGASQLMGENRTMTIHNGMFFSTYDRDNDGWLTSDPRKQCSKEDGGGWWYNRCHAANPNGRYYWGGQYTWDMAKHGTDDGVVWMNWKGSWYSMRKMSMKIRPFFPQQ
Chain of fibrinogen (P02679 27-453, chain 3 of 3): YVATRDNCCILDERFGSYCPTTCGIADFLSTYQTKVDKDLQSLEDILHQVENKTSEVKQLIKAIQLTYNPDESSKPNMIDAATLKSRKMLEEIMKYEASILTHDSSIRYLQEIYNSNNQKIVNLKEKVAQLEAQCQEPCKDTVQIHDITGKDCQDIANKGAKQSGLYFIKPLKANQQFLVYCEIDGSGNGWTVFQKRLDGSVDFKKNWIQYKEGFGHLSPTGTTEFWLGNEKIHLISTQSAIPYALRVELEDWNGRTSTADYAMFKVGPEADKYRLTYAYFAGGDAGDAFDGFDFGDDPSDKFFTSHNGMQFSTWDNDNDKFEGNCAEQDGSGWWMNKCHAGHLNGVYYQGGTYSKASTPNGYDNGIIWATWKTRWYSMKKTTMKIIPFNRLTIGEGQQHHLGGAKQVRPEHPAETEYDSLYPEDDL

The term Kd denotes a measure of binding affinity in units of concentration. Consider TGCGCACTGAACGATCCTGCGTCAAGTTCAAGGTTGTG (structured_DNA) [truncated Zika aptamer (T-ZV apt), 5'-FAM], for which the equilibrium dissociation constant (Kd) in series [1] was 333 ± 60.3 nM.
Consider TGCGCACTGAACGATCCTGCGTCAAGTTCAAGGTTGTG (structured_DNA, thiol (SH), end not stated) [truncated Zika aptamer (T-ZV apt), thiolated], for which the binding result with myoglobin was “no binding”; with hemoglobin, “no binding”; in the series with fibrinogen it was “no binding”; in series [2], “binds”.

B1: original Zika envelope aptamer (ZV apt) (structured_DNA)
DNA: TGACACCGTACCTGCTCTAGTGCGCACTGAACGATCCTGCGTCAAGTTCAAGGTTGTGAAGCACGCCAAGGGACTAT
With B1, the binding result in series [3] is “binds”.
